For test [1], the target named is human TLR4 (hTLR4) on HEK-Blue-hTLR4 reporter cells (human) (UniProt O00206).
Test [2] concerns the target mouse TLR4 (mTLR4) on HEK-Blue-mTLR4 reporter cells (mouse) (UniProt Q9QUK6). To be noted: for log (EC50) of NF-kB-driven SEAP secretion by HEK-Blue-mTLR4 reporter cells, 48 h, dose-response up to 2540 nM: scale: log.
Chain of UniProt Q9QUK6 (Q9QUK6 26-835): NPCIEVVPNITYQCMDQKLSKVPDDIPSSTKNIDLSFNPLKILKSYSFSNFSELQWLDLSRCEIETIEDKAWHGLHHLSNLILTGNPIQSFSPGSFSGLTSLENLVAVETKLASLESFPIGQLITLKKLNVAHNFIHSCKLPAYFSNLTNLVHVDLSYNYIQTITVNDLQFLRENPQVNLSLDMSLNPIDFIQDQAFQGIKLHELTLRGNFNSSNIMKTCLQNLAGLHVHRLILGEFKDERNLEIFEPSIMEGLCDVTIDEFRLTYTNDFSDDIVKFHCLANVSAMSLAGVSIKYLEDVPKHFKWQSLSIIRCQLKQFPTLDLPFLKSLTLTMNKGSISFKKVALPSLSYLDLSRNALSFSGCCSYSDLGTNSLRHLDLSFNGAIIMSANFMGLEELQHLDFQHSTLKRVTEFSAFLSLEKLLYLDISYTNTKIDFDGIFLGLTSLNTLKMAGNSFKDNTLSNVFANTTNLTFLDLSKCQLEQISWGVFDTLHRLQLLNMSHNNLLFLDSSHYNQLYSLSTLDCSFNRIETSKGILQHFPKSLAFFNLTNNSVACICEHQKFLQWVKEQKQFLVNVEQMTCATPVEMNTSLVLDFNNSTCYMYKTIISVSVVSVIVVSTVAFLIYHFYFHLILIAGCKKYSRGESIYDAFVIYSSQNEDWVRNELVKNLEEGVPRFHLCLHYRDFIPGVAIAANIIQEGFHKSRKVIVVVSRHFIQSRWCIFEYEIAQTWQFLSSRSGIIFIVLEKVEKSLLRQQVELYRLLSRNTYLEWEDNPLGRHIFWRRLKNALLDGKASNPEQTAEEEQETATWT

Chain of UniProt O00206 (O00206 24-839): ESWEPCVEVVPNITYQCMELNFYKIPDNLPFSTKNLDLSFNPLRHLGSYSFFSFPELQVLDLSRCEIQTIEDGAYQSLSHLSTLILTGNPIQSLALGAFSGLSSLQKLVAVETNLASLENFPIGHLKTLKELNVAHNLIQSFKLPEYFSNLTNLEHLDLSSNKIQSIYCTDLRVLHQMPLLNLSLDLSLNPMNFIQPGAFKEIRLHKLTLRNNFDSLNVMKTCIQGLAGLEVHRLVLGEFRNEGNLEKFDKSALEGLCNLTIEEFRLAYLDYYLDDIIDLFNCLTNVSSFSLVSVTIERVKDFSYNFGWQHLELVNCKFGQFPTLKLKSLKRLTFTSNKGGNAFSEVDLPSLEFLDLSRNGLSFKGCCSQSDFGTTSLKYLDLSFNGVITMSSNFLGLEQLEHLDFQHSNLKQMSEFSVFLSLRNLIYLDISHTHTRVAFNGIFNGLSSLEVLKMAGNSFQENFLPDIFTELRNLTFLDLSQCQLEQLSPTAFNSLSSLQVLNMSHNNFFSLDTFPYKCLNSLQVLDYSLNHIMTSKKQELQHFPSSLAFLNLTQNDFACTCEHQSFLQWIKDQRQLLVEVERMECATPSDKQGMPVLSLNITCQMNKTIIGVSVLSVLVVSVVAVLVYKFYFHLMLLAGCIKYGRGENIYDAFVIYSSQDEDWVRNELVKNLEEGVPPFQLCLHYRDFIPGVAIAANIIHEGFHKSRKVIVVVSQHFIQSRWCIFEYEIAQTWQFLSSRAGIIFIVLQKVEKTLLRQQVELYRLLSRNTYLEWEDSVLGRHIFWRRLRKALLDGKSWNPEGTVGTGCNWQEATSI

As to “recombinant surface immunogenic protein (rSIP) from Streptococcus agalactiae (natural protein)”, the activation of HEK-Blue-hTLR4 reporter cells (SEAP), dose-response up to 2,540 nM, 48 h, LPS = 100% in test [1] is 90 % of LPS. In addition, in test [2], the maximum activation of HEK-Blue-mTLR4 reporter cells (SEAP), dose-response up to 2540 nM, 48 h, LPS plateau = 100% is 80 % of LPS and the log (EC50) of NF-kB-driven SEAP secretion by HEK-Blue-mTLR4 reporter cells, 48 h, dose-response up to 2540 nM is -1.
The like results for “Fissurella latimarginata hemocyanin (FLH) (natural protein)” were, in that order, 25 % of LPS, 80 % of LPS and 0.1.

(Values after article PMC10544979.)
